# B1: ART-37: Androgen Receptor Trapped protein, SEQ ID NO:6, unknown function, represented in EST database (protein)
# chain: EFGTRARFTRGKSALLERALARPRTEVSLSAFALLSPSWYSTARAVFSVAELQSRLAALGRQVGARVLDALVAREKGARRETKVLGALLFVKGAVWKALFGKEADKLEQANDDARTFYIIEREPLINTYISVPKENSTLNCASFTAGIVEAVLTHSGFPAKVTAHWHKGTTLMIKFEEAVIARDRLEGR
# modifications: Human
# Experiments:
# [1] = biological target: T1, androgen receptor N-terminus (AR18-500) (Rattus norvegicus, UniProt P15207); assay: Modified yeast two-hybrid, quantitative liquid beta-galactosidase assay; type: binding; settings: LexA-ART fusions vs AR18-500; twelve hour incubation in galactose-containing media
# T1 construct: receptor residues 18 through 500 (using the rat androgen receptor number scheme); expressed in transfected cells; host or cells: Saccharomyces cerevisiae EGY188
# T1 sequence (P15207 18-500): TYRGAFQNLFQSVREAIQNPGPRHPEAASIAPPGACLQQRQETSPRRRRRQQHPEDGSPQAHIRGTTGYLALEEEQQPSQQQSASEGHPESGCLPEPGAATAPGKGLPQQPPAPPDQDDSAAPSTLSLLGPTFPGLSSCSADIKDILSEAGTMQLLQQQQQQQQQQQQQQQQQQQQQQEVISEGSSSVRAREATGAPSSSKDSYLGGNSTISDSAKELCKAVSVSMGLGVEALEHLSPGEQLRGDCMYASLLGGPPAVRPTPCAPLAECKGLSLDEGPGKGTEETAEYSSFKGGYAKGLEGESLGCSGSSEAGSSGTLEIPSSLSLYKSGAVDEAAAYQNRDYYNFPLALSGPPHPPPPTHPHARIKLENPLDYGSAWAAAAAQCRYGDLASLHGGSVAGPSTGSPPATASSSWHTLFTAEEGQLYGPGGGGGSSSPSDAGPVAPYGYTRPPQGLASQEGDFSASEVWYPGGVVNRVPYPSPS
# Protocol: (§1) The modified yeast two hybrid assay is described in Hittelman et al., 1999. EGY188 was transformed by the lithium acetate method with (i) pJG4-5:AR18-500, (ii) pEG202:LNCaP cell cDNA library and (iii) pJK103, a β-galactosidase reporter gene with a single LexA operator. Potential interacting proteins were selected by plating the cDNA library expressing transformants onto galactose plates lacking leucine and containing X-gal.
# Yeast were grown in selective liquid media containing 2% glucose for approximately 12 hours, pelleted, washed once with sterile H2O, normalized according to cell number and resuspended to an optical density (OD600) of 0.15 in 2% galactose/1% raffinose. β-galactosidase assays were performed 12 hours later as described previously (Garabedian et al., 1992).
# Out of approximately one million library transformants, eight clones were isolated that interact with the androgen receptor N-terminus. There protein factors were termed ARTs, for Androgen Receptor Trapped, by the present inventors. The eight ART clones were sequenced and were subjected to a database search using the BLAST program. A quantitative liquid beta-galactosidase assay was used to measure the relative strength of interaction between the androgen receptor N-terminus and the ARTs using the yeast two-hybrid system. The levels of expression of the ARTs in yeast were similar, as determined by immunoblotting using an antibody to the LexA DNA-binding domain that is common to all of the ARTs.
# ARTs expressed as fusion proteins with the LexA DNA binding domain were analyzed for their ability to interact with AR18-500. The relative strength of interaction was determined by a quantitative liquid beta-galactosidase assay after a twelve hour incubation in galactose-containing media at 30EC. The LexA vector alone gives 1 unit of activity.
# [2] = biological target: T2, androgen receptor (AR) N-terminus (18-500) (Rattus norvegicus, UniProt P15207); assay: Modified yeast two-hybrid, qualitative plate beta-galactosidase assay; type: binding; settings: AR N-terminus, AR LBD, Sp1A, Sp1B, CREB, TAFII130, GR AF1, SRC-1
# T2 construct: receptor residues 18 through 500 (using the rat androgen receptor number scheme); expressed in transfected cells; host or cells: Saccharomyces cerevisiae EGY188
# T2 sequence (P15207 18-500): T1 sequence (P15207 18-500)
# From the text: as §1
# To analyze the specificity of ART interaction, the capacity of the strongest androgen receptor N-terminus-interacting factors to associate with a panel of transcriptional regulatory proteins in the modified yeast two-hybrid assay was examined. ART-5, ART-27, and ART-37 were tested for interaction with Sp1A (Sp183-262), Sp1B (Sp1263-524) the cyclic AMP response element binding protein (CREB3-296), TBP-associated factor 130 (TAFII130270-700), the glucocorticoid receptor AF1 (GR107-237), and the steroid receptor coactivator-1 (SRC-1374-800).
# The strength of interaction was determined by a qualitative plate beta-galactosidase assay after a 24 hour incubation on galactose X-gal plates at 301 C.
# ART-27 derivatives containing amino acids 1-45, 1-67, 1-127, 46-157, 68-157, 127-157, 1-157, and 1-45/127-157 were expressed as fusion proteins with LexA. These derivatives were tested for their ability to interact with the androgen receptor N-terminus (AR18-500). The strength of interaction was determined by a qualitative plate beta-galactosidase assay after a 24 hour incubation on galactose X-gal plates at 301 C.
# [3] = biological target: T3, androgen receptor ligand-binding domain (579-901) (Rattus norvegicus, UniProt P15207); assay: Modified yeast two-hybrid specificity panel; settings: absence or presence of hormone
# T3 construct: expressed in transfected cells; host or cells: yeast (modified two-hybrid assay)
# T3 sequence (P15207 579-901): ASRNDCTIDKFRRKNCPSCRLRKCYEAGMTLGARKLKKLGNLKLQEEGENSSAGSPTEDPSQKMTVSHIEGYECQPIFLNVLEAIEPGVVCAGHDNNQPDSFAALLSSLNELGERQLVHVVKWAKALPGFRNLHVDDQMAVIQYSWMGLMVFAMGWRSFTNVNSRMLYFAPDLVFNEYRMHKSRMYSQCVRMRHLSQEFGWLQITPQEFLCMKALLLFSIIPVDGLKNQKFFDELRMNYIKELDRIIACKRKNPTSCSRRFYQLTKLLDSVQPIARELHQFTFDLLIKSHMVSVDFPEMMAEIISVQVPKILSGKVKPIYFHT
Molecule,relative strength of interaction with androgen receptor N-terminus [1],specificity of interaction among panel of transcriptional regulatory factors [2],interaction with androgen receptor ligand binding domain [3]
"ART-2: Androgen Receptor Trapped protein, SEQ ID NO:10, present in the EST database (EFGTRIHCPHNPRPTRRSTDHSISPSIDPHLQISHQQPTNHHPTMTNQTNLKTNDNHTQH; Human)",Weak,,
"ART-9: corresponds to ZNF160, a zinc finger containing protein of unknown function",Weak,,
"ART-6: Androgen Receptor Trapped protein, SEQ ID NO:8, an EST (EFGTRLKPYVSYLAPESEETPLTAAQLFSKPLAPCHRKGLQG; Human)",Intermediate strength,,
B1,strongest,relatively promiscuous,No interaction

# Source: patent US20080081903A1, “METHOD FOR SCREENING TRANSCRIPTIONAL COREGULATORY PROTEINS OF TRANSCRIPTION FACTORS, AND ANDROGEN RECEPTOR TRANSCRIPTIONAL COREGULATORY PROTEINS AS TARGETS FOR ANDROGEN RECEPTOR-DEPENDENT DISEASES” (NEW YORK UNIVERSITY, priority 2001, published 2008)
